In patent publication US20030219718, “Inhibitors of the S100-p53 protein-protein interaction and method of inhibiting cancer employing the same” (UNIVERSITY OF MARYLAND, BALTIMORE, published 2003):

Target: p53 (UniProt P04637 P04637:1-393)
Assay: EMSA; supershifted by p53 antibody; five times more protein and DNA needed than for GADD45; salmon sperm DNA 1.0 µg
Settings: tags: baculovirus expressed, Protein Sciences Inc; chain copies: 4; label: T4 polynucleotide kinase end label
Experimental: Accordingly, mobility shift assays were performed with purified p53 to determine if these sequences in the promoter of S100B were bona fide p53 binding sites, using the GADD45 sequence as a positive control. […] The baculovirus expressed p53 was obtained from Protein Sciences Inc. (Baltimore, Md.). Baculovirus expressed p53 was used (0.6 and 3.0 μg) for binding to the GADD45 and the S100B oligonucleotides respectively.

p53, sequence (P04637 whole entry, one chain of several): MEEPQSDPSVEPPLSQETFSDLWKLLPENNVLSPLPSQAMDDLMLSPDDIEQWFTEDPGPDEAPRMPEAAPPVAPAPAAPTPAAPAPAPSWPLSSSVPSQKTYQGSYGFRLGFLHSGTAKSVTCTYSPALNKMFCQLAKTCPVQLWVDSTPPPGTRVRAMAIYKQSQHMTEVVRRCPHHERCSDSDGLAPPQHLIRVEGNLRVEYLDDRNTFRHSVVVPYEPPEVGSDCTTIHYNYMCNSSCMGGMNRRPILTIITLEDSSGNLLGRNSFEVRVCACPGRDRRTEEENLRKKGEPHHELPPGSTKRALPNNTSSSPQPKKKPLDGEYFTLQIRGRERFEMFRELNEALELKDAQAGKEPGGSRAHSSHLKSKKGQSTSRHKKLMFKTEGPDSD

B1: S100B promoter p53 site (20/20 match, nt 1705-1735) (dsDNA)
DNA 1: GCCTGGGCAAGCTCTGTGCTTCACAGAGCAAGCCTGTGT
DNA 2: ACACAGGCTTGCTCTGTGAAGCACAGAGCTTGCCCAGGC
B1: binds.
